# Source: the DeepSol protein solubility set
# Assay: soluble on expression in E. coli; label from the status in PepcDB or PDB records
row,Sequence,soluble on expression in E. coli
1,MSLRKPNEKTMKTKFCRTAVYCLCCFMFIQPITGSQVNDTHEGVLHIDKQKTRKVSRVQYGFHYEEIGMIGEGALHAELVRNRSFEEATPPADLAVKNGLYQNVPNPRGKNKDVFHVDPLIGWNTYPLSYTPIFISRTEENPLNKENKYSMLVNVTEDIANNPEAMILNRGYYGMNLRKEVSYHLSMYIKSKNYTALLQVMLVDEQGKPVSTQLVLDVKGKEWTKLTGTLKPDKDVKRGMLAIQPLGKGQFQLDVVSLFPSDTWDNGKSVFRADIMQNLKEYAPDFIRFPGGCIVHGVNEATMYHWKKTIGPIENRPGQWSKWAPYYRTDGIGYHEFYELCEYLGADAMYVIPTGMICTGWVKQSSPWNFIQPDVDLDAYIQDALDAIEYAIGPETSKWGALRVKNGHPKPFPLKYIEIGNEDFGPVYWERYEKIYQALHRQYPDLIYIANSIIGKENDDKRIDIAKFVNPKNVKVFDEHHYQPVEWACKQHYRFDNYERGIADLFVGELGIDGKYPYNLLASGAVRMSLERNGDLNPLLAERPVMRHWDFSEHRQLHSMLINGVDCSIRTSFYYLSKMFRDHTFDVCLDAGIQGMKGLQNVFVTMGYDSESKEYILKLINLRKQEVVLQTAVKGFGKKIQAQKITLSLEPGKNNTPEMPDAVKPVQSTVTLDLNKDLQLEASSMIVYRFKEGHHHHHH,soluble
2,MGSDKIHHHHHHYATPEEYYKATGKKITEYHESPMLTKLVEEGKLPPVEQRLPEEPLVVQPVEKVGQFGGTWRRVWKGPSDRWGISKLIEVKLAFWDKEGGKLVPGLAKSWEVLENGRVYIFHLRKGVKWSDGAPYTAHDIVFWVNDIVGNDDITPSKPDWYNIGVKVEALDDYTVKFEFSKPYGLFLLKVPYGGFTGAPAHYLKQFHPKYTPMEEIEKKMVEGVHNTWVDLFNDKNDFLENTELPTLSPWKPITDPTEQFYILERNPYFWAVDIEGNQLPYIDYVRHEYVKNDEVILLKAISGEIDMQWRHIGGLGAGAGNFTLLMENSQSGGYRVLKWIAANGSASRISLNYAHSDEVLRKVFNDVRFRQALSLAINREEINEILFNGLAEPRQASLVSGSPYFDPEWEKAYAEYDPDRANKLLDEMGLKWDDKHEYRLLPDGRPLRFTITVTGQFHVDVWTMVKEYWKQIGVWVEIENLERSLFYERADAGDFDAMVWNMDRAAQPLSSPMVIFPGSENIADFWYIGWSGWISYYIDKNIRGVEPEEVPEGPEPPEVVYRLVDLYYQIASTPDPDKIKELMAEATKIHRENLWMIGTVGEDLSPAIAKNNFRNVPEFLVTDDVLRTPLNAMPMQFFIEQK,not soluble
3,MDSTMTNYMGQENLPPALKLINDKSYQYSTHKHNIETSNDGTLHSYTIVLSREPLESPTSYNKYQKNVEPVQKENQKPKDLNKMTAGPHIAVKNSSGLVSQISSTTSSERKRRTLARPSSSSESDLKVGNIQQSNQYFTLPSVMKPSALSTEDPKKVIVQSNTSSSSMSDASSKKSLPTYTYLSGHTTGSARYVTMVNVKFLLLHCDVLQRRAQSMFTDEFPSDCRLEEVVINFHQLCCRQLLDQNFNPRLSYCIGELNYSDSKPVSANDMSKTLAQLATTQSIAQLSIIVDVTEKNMKLK,not soluble
4,MGSDKIHHHHHHMTMLSTPQPTLADLAIEPGLPTVVSPRAGAAISLEEAAPLLRAIVDDTLERAGGVLFTGFHVASIDAFQSFAGSFGHPLIGYEFASTPRSQVEGAVYTSTEYPPHRSIPLHNEQSYTREWPLRIWFHCALAARSGGATPIADSRAIYRALDPALVDRFAKRELLYVRNFGQGLDLPWEQAFGSADPRTVERICRARGIECEWRDSEDGELLLRTRERCQAVARHPRTGEHVWFNQANLFHLSSLDEDMQEALIDSVGLENVPRNVYYGDGEPLEADALAEIRGVLDQQRIVFPWLTGDVLMLDNMLSAHARDPFEGPRKVVVAMARSYSEAEGEKRTAAP,not soluble
5,SELDAKLNKLGVDRIAISPYKQWTRGYMEPGNIGNGYVTGLKVDAGVRDKSDNNVLDGIVSYDRAETKNAYIGQINMTTAS,soluble
6,MQDILFDFISTYISLTEDEKNALLSLDLFRSVPKGTILLKEGQKSQESYFVLKGCIRIYYIIDGEEKTTAFYTEMDALTPPCVIHNAPSEYFISCIEDSILTVSNLEMEAEINSKFPKFELMCRMLSEELLAKQQIDFDAFKTSSPEQRYLNVLQNRPDLIQRVPQHQLASFLGIKPQSLSRLRARIVDKKS,not soluble
7,SKGKLGEKISQFKIVEELKAKGLYAYFRPIQSKQDTEVKIDGRRVLMFGSNSYLGLTTDTRIIKAAQDALEKYGTGCAGSRFLNGTLDIHVELEEKLSAYVGKEAAILFSTGFQSNLGPLSCLMGRNDYILLDERDHASIIDGSRLSFSKVIKYGHNNMEDLRAKLSRLPEDSAKLICTDGIFSMEGDIVNLPELTSIANEFDAAVMVDDAHSLGVIGHKGAGTASHFGLNDDVDLIMGTFSKSLASLGGFVAGDADVIDFLKHNARSVMFSASMTPASVASTLKALEIIQNEPEHIEKLWKNTDYAKAQLLDHGFDLGATESPILPIFIRSNEKTFWVTKMLQDDGVFVNPVVSPAVPAEESLIRFSLMATHTYDQIDEAIEKMVKVFKQAEVETLI,soluble
8,GSPEETLVIALYDYQTNDPQELALRCDEEYYLLDSSEIHWWRVQDKNGHEGYAPSSYLVEKSP,soluble
9,GAMVMRLGDAAELCYNLTSSYLQIAAESDSIIAQTQRAINTTKSILINETFPKWSPLNGEISFSYNGGKDCQVLLLLYLSCLWEYYIVKLSQSQFDGKFHRFPLTKLPTVFIDHDDTFKTLENFIEETSLRYSLSLYESDRDKCETMAEAFETFLQVFPETKAIVIGIRHTDPFGEHLKPIQKTDANWPDFYRLQPLLHWNLANIWSFLLYSNEPICELYRYGFTSLGNVEETLPNPHLRKDKNSTPLKLNFEWEIENRYKHNEVTKAEPIPIADEDLVKIENLHEDYYPGWYLVDDKLERAGRIKKK,soluble
10,MAYNLKEVAKKPERLTGGHRMCAGCGAPIVVRQVLKALKPEDHAVISAATGCLEVSTFIYPYTAWKDSFIHSAFENTGATISGAEAAYKVLKKKGKIEGETKFIAFGGDGGTYDIGLQALSGAMERGHDMVYVCYDNGAYMNTGIQRSSATPKYADTTTSPVGKKIPGKMQPRKDLTEVLVNHRIPYVAQTAPFGNMKDLYEKAEKAIYTPGPAFLNVLAPCPRGWRYNTPDLMELSKLAVETCFWPLYEVIDGKYIINYKPKEKVPVKEFLKLQGRFKHLFKAGNEYMLEEIQKEVDLRWERLLKLAGEA,not soluble
11,MGSSHHHHHHSSGRENLYFQGHMASQLTDAFARKFYYLRLSITDVCNFRCTYCLPDGYKPSGVTNKGFLTVDEIRRVTRAFARLGTEKVRLTGGEPSLRRDFTDIIAAVRENDAIRQIAVTTNGYRLERDVASWRDAGLTGINVSVDSLDARQFHAITGQDKFNQVMAGIDAAFEAGFEKVKVNTVLMRDVNHHQLDTFLNWIQHRPIQLRFIELMETGEGSELFRKHHISGQVLRDELLRRGWIHQLRQRSDGPAQVFCHPDYAGEIGLIMPYEKDFCATCNRLRVSSIGKLHLCLFGEGGVNLRDLLEDDTQQQALEARISAALREKKQTHFLHQNNTGITQNLSYIGG,soluble
12,MSLIVTAYTQEGIVIGADSCITTNFTQEGKELYKHSHCGNKLFLLNKKIGISTCGDAIINGILLSSLIDQYIWSKKEENITLLQVEIDLKNIVNNQAKGKEYYVIFHICGYENGKRYVSKFDNNDKESHIKDVSERDGCIYDGQVDIVDLFSQDVAYRGTDGLYYDINIERCRYNELSLQETIEYVYFLISTTIQHMRFTYKKDNVGFPIDILVIMPNESLWLQKKELHIPGNY,not soluble
13,PLLIGGLYPKNLEDRILIKLDQAPPYLLDGLVAVEDRDFYHHFGVSPKSIARAIWVNTSQGQMRQGGSTLTQQLVKNFYLTNERSLSRKLTEAMMAVLLEIHYSKQEILEAYLNEVFVGQDGQRAVHGFGLASQYFFSQPLSELKIHQVAMLVGLVKGPSFY,not soluble
14,MPALPPVYTPSGAPSSVHAPPAVPPVPVPTQPLRSEYQTSNDACIKRLEELNIAPAAKLYPTPTEPGKCGVEAEIQTNVFGIEMHQDSLFYQYSVNITTELKNGKEVTFTKKGKDDFVVTERHDKCCAILFRALGDYEEFFKTSDSCLIYDGQSILFSNVDLFQGFREGAVKTKYMQLDGGEMDHKDLKSLPCIKLEVFPTKNPAVKFTREAVARRATDSNLDSVSLAYQQILELALTQPCLRNTARYVVFDHGKMFFIDPLGEGFEKCDVVDVGDGKQVVPGLKKTINFIEGPYGRGRSNPSVVIDGMKVAFHKNQPILDKLKEITTQPVEHGLKGLEKDRCAAVIKGLDCYSTYGGRERHHKIEGIHHEGARNARFELNDGGSCTVAQYFEDVYNITLRYPDTNLIVSKERGNINFYPMELLKISSHQRVQIPQLTSAQSQKTTKESAVLPDVRQRLILTGKNAAQISSDNEVLGKMGVSVCEDPLMVKGRSIPAVKLANAEIGANPINVKDNKWRANRFTRPATAPNVWAMYVVGTASTRITLDTLKKFADEFAAMCKSKGVNMPAPADISLIHMDAIESRLYDATKANCTFVFIITDDSITTLHQRYKMIEKDTKMIVQDMKLSKALSVINAGKRLTLENVINKTNVKLGGSNYVFVDAKKQLDSHLIIGVGISAPPAGTKYAMENKGVLNPNVIGYAYNAQHNQEFSGDFVLNSASQDTLAPIEDIVMHSLNEYQKFHDGGLPRRVIVYRTGTSEGNHGSIMAYEIPLARAAMRDFSPDIQLVYIVVSKDHSFRFFKPDLASLASRPQATSSTASRHSAMPAAPKAWDLNIAPGILVDSIVTNPACKQFFLNSHITLQGTAKTPLYTVLADDAKVSMTALEDITYKLCHLHQIVGLPTSLPTPLYVANEYAKRGRNLWNEAVALNNVPTVSGPEADRLKELTKSICYKASGDLTGRRVNA,not soluble
15,MSLKIKDIKVIFTEPDNIRLIIVKILTDQDGLYGVGCATFTQRPNPVKYAIEDYLKPFLIGKEVSNIEDIWQSSYVSSYWRNGPVLNNALSGVDQALWDIKGKMANMPLYDLFGGKTREAAAVYVHSSGDSNEEVGDKMQAFIEQGFHHIRVQVSTPGYSTYGNKSAKAGDKTLNNNDPKLGPIPVTKRVKDYSDGKLYAHPGGVFEPKPYLRSALSLFEYIRDRFGYGIEILHDVHERIPPILGVWFAKEVEKYQLFFLEDLFSPEDNEYFSMVRAQSSTPIAMGELYSSPHEIIPMIKNRLIDFIRIHISDIGGLTPAKKIAAMGEIFGVRTAWHGPGDTSPIGHAANLALDLSCYNFGIQEYSIFGENTKEVFPGCPIVKKGMMWSNDKPGLGIDIDEKLAKKFPFKEREYGGAWDTVRRADGSMVKEGHHHHHH,not soluble
16,MGSDKIHHHHHHMSQILQNFIKQAQYNPLHSLEEWEEDLLNRYPDPHSIVKEGKTTQEYRNYETPTRETVKEFYRLNHINQTYNFVLEKEKNFLKFDKKEMSVWDAVEFLNQLVDDSDPDTEMDQLQHLLQTSEAIRADGHPDWMVLTGFFHDMGKVLCLFGEPQWATVGDTYPVGCAFSDKIVFSEFFQENPDYNNPNYNTKYGIYEPNCGLINVHISWGHDEYFYQMMKNYLPEPALYMLRYHSFYPQHRENAYKHLMDNHDREMFKWVKLFNPYDLYSKNPTPPDWQKLRPYYEDLVAKYLPATLKF,not soluble
17,MGSDKIHHHHHHMENRITLRHLEAFRAIMVRKSVTGAAEMLEVTQPVVTRLIADLEERIALTLFTRTKGRLVPTPEAALLVKDVEQSLLSIERIANAATNIKSLKMGRLEIAASPNMALSFLPRAINSFTLAHPEAHVSMRMHSSPTVLDMVQRDQCDLGFAMFPARSTKSGNSETLVSAKMVAVVPKTHALATKRTLRPEHFEGERFISMMPLMESRMRIDSLMLSHGVRRHVNCETQTSAAVLQLVEAGVGISIIDPLTACGYTGTGVKFLNFEPVIRNDYSIVISQRNSSTLILKPFIDHAKREILNMVPAHLLIRS,not soluble
